Assay results as given in US20120171195A1.
One block for each substance: values may come before it.

What was measured:
HLA-B*1513 (human) = assay: Luminex beads; MAb 1/1600; competitor rHLA-E
HLA-B*4002 (human) [1] = target: HLA-B*4002 (human) (UniProt P01889); assay: Luminex beads; MAb 1/1600; competitor rHLA-E
HLA-B*5101 (human) [2] = assay: Luminex beads; MAb 1/1600; competitor rHLA-E
HLA-Cw*0702 (human) [3] = target: HLA-Cw*0702 (human) (UniProt P10321); assay: Luminex beads; MAb 1/1600; competitor rHLA-E
HLA-Cw*1402 (human) [4] = target: HLA-Cw*1402 (human) (UniProt P10321); assay: Luminex beads; MAb 1/1600; competitor rHLA-E
HLA-Cw*1802 (human) [5] = target: HLA-Cw*1802 (human) (UniProt P10321); assay: Luminex beads; MAb 1/1600; competitor rHLA-E
HLA-B*1401 (human) = HLA-B*1401 (human) (UniProt P01889); assay: Luminex beads; MAb 1/100; competitor IgG-free serum
HLA-B*1511 (human) [6] = target: HLA-B*1511 (human) (UniProt P01889); assay: as above
HLA-B*1801 (human) = assay: as above
HLA-B*4006 (human) [7] = target: HLA-B*4006 (human) (UniProt P01889); assay: as above
HLA-B*4101 (human) [8] = target: HLA-B*4101 (human) (UniProt P01889); assay: as above
HLA-B*4403 (human) = assay: as above
HLA-B*5801 (human) = assay: as above
HLA-Cw*0202 (human) = assay: as above
HLA-Cw*0302 (human) [9] = target: HLA-Cw*0302 (human) (UniProt P10321); assay: as above
HLA-Cw*0501 (human) = assay: as above
HLA-Cw*0602 (human) = HLA-Cw*0602 (human) (UniProt P10321); assay: as above
HLA-Cw*0702 (human) [10] = target: HLA-Cw*0702 (human) (UniProt P10321); assay: as above
HLA-Cw*0801 (human) [11] = target: HLA-Cw*0801 (human) (UniProt P10321); assay: as above
HLA-Cw*1402 (human) [12] = target: HLA-Cw*1402 (human) (UniProt P10321); assay: as above
HLA-Cw*1701 (human) [13] = assay: as above
HLA-B*4006 (human) [14] = target: HLA-B*4006 (human) (UniProt P01889); assay: Luminex beads; MAb 1/400; competitor IgG-free serum
HLA-Cw*0801 (human) [15] = target: HLA-Cw*0801 (human) (UniProt P10321); assay: as above
HLA-Cw*1701 (human) [16] = assay: as above
HLA-Cw*1802 (human) [17] = target: HLA-Cw*1802 (human) (UniProt P10321); assay: as above
HLA-B*1402 (human) = assay: Luminex beads; MAb 1/1600; competitor IgG-free serum
HLA-B*1502 (human) = assay: as above
HLA-B*1511 (human) [18] = target: HLA-B*1511 (human) (UniProt P01889); assay: as above
HLA-B*2708 (human) = HLA-B*2708 (human) (UniProt P01889); assay: as above
HLA-B*4002 (human) [19] = target: HLA-B*4002 (human) (UniProt P01889); assay: as above
HLA-B*4101 (human) [20] = target: HLA-B*4101 (human) (UniProt P01889); assay: as above
HLA-B*4402 (human) = assay: as above
HLA-B*4801 (human) = HLA-B*4801 (human) (UniProt P01889); assay: as above
HLA-B*5101 (human) [21] = assay: as above
HLA-B*5201 (human) = assay: as above
HLA-Cw*0302 (human) [22] = target: HLA-Cw*0302 (human) (UniProt P10321); assay: as above
HLA-Cw*0303 (human) = assay: as above
HLA-Cw*0304 (human) = assay: as above
HLA-Cw*0702 (human) [23] = target: HLA-Cw*0702 (human) (UniProt P10321); assay: as above
HLA-Cw*1502 (human) = assay: as above
HLA-Cw*1701 (human) [24] = assay: as above
HLA-B*1513 (B77) (human) = assay: Luminex single-antigen beads; MEM-E/02 1/600; serum Mi127 1/100
HLA-B*5703 (B57) (human) = assay: as above
[25] = target: HLA-Cw*1701 (Cw17) (human); assay: as above

MFI (HLA-B*1513 (human)): 246 MFI
MFI (HLA-B*4002 (human) [1]): 196 MFI
MFI (HLA-B*5101 (human) [2]): 99 MFI
MFI (HLA-Cw*0702 (human) [3]): 88 MFI
MFI (HLA-Cw*1402 (human) [4]): 48 MFI
MFI (HLA-Cw*1802 (human) [5]): 30 MFI
MFI (HLA-B*1401 (human)): 7080 MFI
MFI (HLA-B*1511 (human) [6]): 3320 MFI
MFI (HLA-B*1801 (human)): 3510 MFI
MFI (HLA-B*4006 (human) [7]): 9090 MFI
MFI (HLA-B*4101 (human) [8]): 3390 MFI
MFI (HLA-B*4403 (human)): 3900 MFI
MFI (HLA-B*5801 (human)): 4570 MFI
MFI (HLA-Cw*0202 (human)): 4110 MFI
MFI (HLA-Cw*0302 (human) [9]): 2200 MFI
MFI (HLA-Cw*0501 (human)): 7530 MFI
MFI (HLA-Cw*0602 (human)): 4180 MFI
MFI (HLA-Cw*0702 (human) [10]): 3090 MFI
MFI (HLA-Cw*0801 (human) [11]): 6070 MFI
MFI (HLA-Cw*1402 (human) [12]): 3290 MFI
MFI (HLA-Cw*1701 (human) [13]): 2820 MFI
MFI (HLA-B*4006 (human) [14]): 5550 MFI
MFI (HLA-Cw*0801 (human) [15]): 3530 MFI
MFI (HLA-Cw*1701 (human) [16]): 1360 MFI
MFI (HLA-Cw*1802 (human) [17]): 7220 MFI
MFI (HLA-B*1402 (human)): 301 MFI
MFI (HLA-B*1502 (human)): 350 MFI
MFI (HLA-B*1511 (human) [18]): 388 MFI
MFI (HLA-B*2708 (human)): 272 MFI
MFI (HLA-B*4002 (human) [19]): 403 MFI
MFI (HLA-B*4101 (human) [20]): 392 MFI
MFI (HLA-B*4402 (human)): 248 MFI
MFI (HLA-B*4801 (human)): 412 MFI
MFI (HLA-B*5101 (human) [21]): 281 MFI
MFI (HLA-B*5201 (human)): 337 MFI
MFI (HLA-Cw*0302 (human) [22]): 335 MFI
MFI (HLA-Cw*0303 (human)): 332 MFI
MFI (HLA-Cw*0304 (human)): 370 MFI
MFI (HLA-Cw*0702 (human) [23]): 295 MFI
MFI (HLA-Cw*1502 (human)): 317 MFI
MFI (HLA-Cw*1701 (human) [24]): 392 MFI
Substance: murine monoclonal antibody (MAb) MEM-E/02

MFI (HLA-B*1513 (B77) (human)): < 500 MFI
MFI (HLA-B*5703 (B57) (human)): 917 MFI
MFI [25]: < 500 MFI
Substance: murine monoclonal antibody MAb MEM-E/02
